Experimental data taken from patent US11274126B2, “pH-sensitive cyclic peptides” (University of Rhode Island Board of Trustees, priority 2016, dated 2022).

Key:
HeLa cells [1] = conditions: at the concentrations used, treatment of 2-4 h; previous report; cited from earlier work
4T1 breast tumors = assay: Ex vivo fluorescence imaging of tumor and organs after IV Alexa546-peptides; type: in vivo, mice; conditions: after IV administration
Description: 4T1 breast tumors were established by subcutaneous injection of 4T1 cells (8×10^5 cells/0.1 mL/flank) in the right flank of adult female BALB/c mice (about 19-22 g weight) obtained from Harlan Laboratories. When tumors reached about 6 mm in diameter single tail vein injections of 100 μl of 40 μM Alexa546-peptides were performed. […] At 4 h post-injection euthanization and necropsy was performed followed by ex vivo imaging of tumor, kidneys, liver, lungs and muscle. Mean fluorescence intensity of tumor and organs was calculated using Kodak software.

HeLa cells [2] = assay: Fluorescent microscopy with Trypan Blue quenching; type: cell-based, Human; conditions: 5 μM, 30 min at pH 6.2 versus 7.4
Description: HeLa cells (8,000 cells per dish) were seeded in the center of a 35-mm dish with a 10-mm glass-bottom window coated with collagen (MatTek Corp). Next day cells were incubated with 5 μM of FITC-labeled c[E4W5C] (SEQ ID NO: 5) peptide for 30 min in DMEM medium without FBS at pH 7.4 or 6.2. Cells were washed 5 times at pH 7.4 and 0.4% Trypan Blue was added for 5 min ( 1/10 of the total volume). Fluorescent images were acquired with a Retiga CCD camera (Qimaging) mounted to an inverted Olympus IX71 microscope (Olympus America, Inc.).

[3] = Steady-state tryptophan fluorescence of peptides in buffer and with POPC liposomes; type: physicochemical; conditions: for S, normalized area under the spectra, Pep-PC, pH3: POPC liposomes pH 3; for S, normalized area under the spectra, Pep-PC, pH3 / S, normalized area under the spectra, Pep-PC, pH8: normalized to peptide at pH 8 without POPC; for S, normalized area under the spectra, Pep-PC, pH8: POPC liposomes pH 8; for λmax, Pep-PC, pH3: in the presence of POPC liposomes at pH 3; for λmax, Pep-PC, pH3 / λmax, Pep-PC, pH8 / λmax, maximum position of the fluorescence spectrum, Pep, pH8: excitation 280 nm; for λmax, Pep-PC, pH8: in the presence of POPC liposomes at pH 8; for λmax, maximum position of the fluorescence spectrum, Pep, pH8: peptide in phosphate buffer pH 8, no liposomes
Description: Liposomes such as Large Unilamellar Vesicles (LUVs) were prepared by extrusion. POPC, 1-palmitoyl-2-oleoyl-sn-glycero-3-phosphocholine (Avanti Polar Lipids), or a mixture of POPC with 0.5% of 18:1 NBD-PE, 1,2-dioleoyl-sn-glycero-3-phosphoethanolamine-N-7-nitro-2-1,3-benzoxadiazol-4-yl ammonium salt (Avanti Polar Lipids) were dissolved in chloroform, desolvated on a rotary evaporator, and dried under high vacuum for several hours. The phospholipid film was then rehydrated in 10 mM phosphate buffer pH 8.0, vortexed until the lipid bilayer was completely dissolved, and repeatedly (15-21 times) extruded through the membranes with 50 nm pore sizes to obtain LUVs.
Freshly prepared peptides and POPC vesicles were mixed to have 5 μM of a peptide and 1.25 mM of lipids in the final solution. Steady-state fluorescence measurements were carried out on a PC1 spectrofluorometer (ISS, Inc.) under temperature control at 25° C. Tryptophan fluorescence was excited at 280 nm (there is no Phe or Tyr in the peptides) and recorded with the excitation and emission slits set at 1 nm. The polarizers in the excitation and emission paths were set at the “magic” angle (54.7o from the vertical orientation) and vertically (0°), respectively. Steady state CD measurements were carried out in MOS 450 spectropolarimeter (Bio-Logic, Inc.) with the same concentrations of peptide and lipids as it were used in fluorescence measurements.

[4] = Dual quenching (acrylamide / 10-DN); type: physicochemical; conditions: POPC liposomes; for percentage of fluorescence quenching, Pep-PC + 10-DN pH3 / percentage of fluorescence quenching, Pep-PC + AC pH3: pH 3; for percentage of fluorescence quenching, Pep-PC + 10-DN pH8 / percentage of fluorescence quenching, Pep-PC + AC pH8: pH 8; for percentage of fluorescence quenching, Pep-PC + AC pH3 / percentage of fluorescence quenching, Pep-PC + AC pH8: acrylamide
Description: POPC liposomes without and with 10% of the lipids replaced by 10-doxylnonadecane (10-DN) (Avanti Polar Lipids) were prepared in 10 mM citrate-phosphate buffer pH 8.0. Peptides and POPC liposomes were mixed to generate final concentrations of 7 μM peptide and 2.1 mM POPC without and with 10-DN. […] To the samples of POPC liposomes containing no 10-DN, acrylamide (Sigma-Aldrich) was added to have a final concentration of 235 mM in solution. Concentration of peptides in all samples was kept constant. To observe quenching of tryptophan fluorescence by 10-DN or acrylamide, the tryptophan fluorescence was recorded as described above. The appropriate POPC blanks were measured and subtracted from the measured spectra before analysis. The percentage of quenching was calculated.
To establish localization of the peptides within a lipid bilayer of the membrane, a dual quenching assay (Caputo G A & London E (2003) Biochemistry 42(11):3265-3274) was used (FIG. 6 and Table 8). Effective quenching of fluorescence by acrylamide would occur only for tryptophan residues exposed to polar parts of outer or inner leaflets of the bilayer. At the same time, tryptophan residues located in the middle of a membrane would be effectively quenched by 10-DN. The result of the dual quenching assay allows the determination of whether tryptophan residues are located in the middle of a membrane or close to the polar headgroups of the bilayer. […] Therefore, FRET assays were also performed (McIntyre J C & Sleight R G (1991) Biochemistry 30(51):11819-11827; Clausell et al. (2006) J Phys Chem B 110(9):4465-4471) (FIG. 7). First, POPC liposomes symmetrically-labeled with NBD dye were prepared. Then, membrane-impermeable dithionite was used to modify chemically and quench the fluorescence of NBD at the outer leaflet of the bilayer followed by removal of dithionite by gel filtration. As a result, asymmetrically-labeled liposomes with NBD only at the inner leaflet were obtained. The c[E4W5C] […] All other peptides are located at the outer leaflet of the bilayer at pH 8. Among c[(WE)4WC] (SEQ ID NO: 2), c[(WE)5WC] (SEQ ID NO: 3), and c[(WE)3WC] (SEQ ID NO: 1) peptides, the peptide with smallest cycle, c[(WE)3WC]

HeLa cells [5] = type: cell-based, Human; conditions: up to 4 μM, 3 h at pH 7.4 or 6.0, viability at 48 h
Description: HeLa cells were loaded in the wells of 96-well plates (5,000 cells per well) and incubated overnight. Growth medium was replaced with the medium without FBS pH 6.0 or pH 7.4 containing increasing amounts of peptide-amanitin construct (0.5, 1, 2, and 4 μM). The construct was removed after 3 h. After 48 h of incubation in standard growth medium, a colorimetric reagent (CellTiter 96 AQueous One Solution Assay, Promega) was added for 1 h followed by measuring absorbance at 490 nm to assess cell viability. All samples were prepared in triplicate.

Row | Compound | S, normalized area under the spectra, Pep-PC, pH3 [3] | S, normalized area under the spectra, Pep-PC, pH8 [3] | λmax, Pep-PC, pH3 [3] [nm] | λmax, Pep-PC, pH8 [3] [nm] | λmax, maximum position of the fluorescence spectrum, Pep, pH8 [3] [nm] | percentage of fluorescence quenching, Pep-PC + 10-DN pH3 [4] [%] | percentage of fluorescence quenching, Pep-PC + 10-DN pH8 [4] [%] | percentage of fluorescence quenching, Pep-PC + AC pH3 [4] [%] | other results
1 | CC[C@H](C)[C@@H]1NC(=O)CNC(=O)[C@@H]2Cc3c([nH]c4cc(O)ccc34)[S+]([O-])C[C@@H](NC(=O)CNC1=O)C(=O)N[C@@H](CC(N)=O)C(=O)N1C[C@H](O)C[C@H]1C(=O)N[C@@H]([C@@H](C)[C@@H](O)CO)C(=O)N2 (stereo partly drawn) [amanitin, alpha-amanitin] |  |  |  |  |  |  |  |  | cell death by amanitin alone (HeLa cells [1]): does not induce cell death
2 | N=C(N)NCCC[C@@H]1NC(=O)[C@H](CS)NC(=O)[C@H](Cc2c[nH]c3ccccc23)NC(=O)[C@H](Cc2c[nH]c3ccccc23)NC(=O)[C@H](Cc2c[nH]c3ccccc23)NC(=O)[C@H](Cc2c[nH]c3ccccc23)NC(=O)[C@H](Cc2c[nH]c3ccccc23)NC(=O)[C@H](CCCNC(=N)N)NC(=O)[C@H](CCCNC(=N)N)NC(=O)[C@H](CCCNC(=N)N)NC1=O [c[R4W5C]] |  |  |  |  |  |  |  |  | accumulation in tumor and other organs (4T1 breast tumors): very minimal
3 | FITC-labeled peptide: c[E4W5C] peptide conjugated with Fluorescein-5-maleimide (cyclo(EEEEWWWWWC); also: conjugated with fluorescein-5-maleimide, site not given here) |  |  |  |  |  |  |  |  | fluorescent signal of cells after Trypan Blue quenching, low pH compared to normal pH (HeLa cells [2]): higher level of the fluorescent signal
4 | c[(WE)3WC] (WEWEWEWC; cyclic) | 1.7 ± 0.3 | 0.9 ± 0.1 | 341.7 ± 0.2 | 349.1 ± 0.7 | 351.0 ± 0.2 | 47 | 6 | 63 | percentage of fluorescence quenching, Pep-PC + AC pH8 [4]: 83%
5 | c[(WE)5WC] (WEWEWEWEWEWC; cyclic) | 2.1 ± 0.3 | 1.5 ± 0.3 | 341.2 ± 0.4 | 346.7 ± 1.2 | 350.3 ± 0.2 | 40 | 1.3 | 68 | 
6 | c[E4W5C]-GMBS-amanitin (cyclo(EEEEWWWWWC); also: GMBS-linked amanitin conjugate) |  |  |  |  |  |  |  |  | cell death / cytotoxic effect of peptide-amanitin construct (HeLa cells [5]): reduced significantly at both pHs
7 | l(CW(EW)4) (CWEWEWEWEW) | 1.6 ± 0.4 | 2.3 ± 0.4 | 339.8 ± 0.6 | 346.6 ± 0.7 | 353.0 ± 0.7 | 31 | 20 | 56 | percentage of fluorescence quenching, Pep-PC + AC pH8 [4]: 81%
